From the supplement of paper PMC9876800

test system: peptide library, one residue held at a place counted from the S/T acceptor; experiment: relative phosphorylation of the sub-library (ratio to the mean residue at this position); human; higher = residue favoured; conditions: E fixed; at +4
Method in brief: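 Purified recombinant kinases (human or orthologue constructs) were incubated in 384-well plates with biotinylated degenerate peptide sub-libraries, each fixing one residue at one position around a central Ser/Thr. Peptides were at 50 μM, with 50 μM ATP spiked with γ-32P-ATP, for 90 min under kinase-specific conditions. Spots on streptavidin membranes were phosphorimaged and quantified by densitometry. Relative sub-library phosphorylation is a ratio to the mean residue at that position.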

Sequence of RIPK1, construct: aa1-327 (Q13546 1-327, looked up): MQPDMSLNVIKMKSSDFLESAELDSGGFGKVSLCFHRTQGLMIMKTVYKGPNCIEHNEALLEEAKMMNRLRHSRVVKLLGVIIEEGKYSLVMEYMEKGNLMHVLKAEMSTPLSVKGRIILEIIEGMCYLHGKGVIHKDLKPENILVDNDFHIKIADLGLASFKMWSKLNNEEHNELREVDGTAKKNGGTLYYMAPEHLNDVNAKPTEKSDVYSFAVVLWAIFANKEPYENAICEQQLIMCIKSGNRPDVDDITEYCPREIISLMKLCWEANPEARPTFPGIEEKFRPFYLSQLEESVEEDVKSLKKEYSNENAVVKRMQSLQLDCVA
Sequence of AURKA, construct: Full length (O14965 whole entry, looked up): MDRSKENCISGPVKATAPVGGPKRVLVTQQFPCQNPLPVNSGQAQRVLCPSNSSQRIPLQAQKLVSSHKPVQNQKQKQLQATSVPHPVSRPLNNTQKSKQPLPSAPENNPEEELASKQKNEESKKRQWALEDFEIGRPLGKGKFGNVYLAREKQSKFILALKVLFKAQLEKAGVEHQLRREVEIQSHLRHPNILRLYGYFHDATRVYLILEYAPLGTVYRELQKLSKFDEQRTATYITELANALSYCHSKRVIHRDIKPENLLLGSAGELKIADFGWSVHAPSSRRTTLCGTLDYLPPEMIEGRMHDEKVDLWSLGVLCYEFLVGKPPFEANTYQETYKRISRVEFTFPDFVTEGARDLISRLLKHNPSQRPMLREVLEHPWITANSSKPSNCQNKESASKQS

In order of rising relative phosphorylation:
1. AURKA, construct: Full length (from UniProt O14965)  1.1
2. PRKACB, construct: Full length (from UniProt P22694)  1.3

same assay, conditions: E fixed; at -1

In order of rising relative phosphorylation:
1. RIPK1, construct: aa1-327 (from UniProt Q13546)  0.313
2. PRKACB, construct: Full length (from UniProt P22694)  0.49
3. AURKA, construct: Full length (from UniProt O14965)  1.56

same assay, conditions: E fixed; at -2

In order of falling relative phosphorylation:
1. RIPK1, construct: aa1-327 (from UniProt Q13546)  0.37
2. AURKA, construct: Full length (from UniProt O14965)  0.257
3. PRKACB, construct: Full length (from UniProt P22694)  0.167

same assay, conditions: E fixed; at -3

In order of falling relative phosphorylation:
1. AURKA, construct: Full length (from UniProt O14965)  0.85
2. RIPK1, construct: aa1-327 (from UniProt Q13546)  0.551
3. PRKACB, construct: Full length (from UniProt P22694)  0.252

same assay, conditions: E fixed; at -4

In order of rising relative phosphorylation:
1. RIPK1, construct: aa1-327 (from UniProt Q13546)  0.685
2. PRKACB, construct: Full length (from UniProt P22694)  0.816
3. AURKA, construct: Full length (from UniProt O14965)  0.963

same assay, conditions: E fixed; at -5

In order of falling relative phosphorylation:
1. AURKA, construct: Full length (from UniProt O14965)  1.06
2. PRKACB, construct: Full length (from UniProt P22694)  0.736
3. RIPK1, construct: aa1-327 (from UniProt Q13546)  0.68

same assay, conditions: F fixed; at +1

In order of falling relative phosphorylation:
1. RIPK1, construct: aa1-327 (from UniProt Q13546)  1.91
2. AURKA, construct: Full length (from UniProt O14965)  1.83
3. PRKACB, construct: Full length (from UniProt P22694)  0.811

same assay, conditions: F fixed; at +2

In order of rising relative phosphorylation:
1. PRKACB, construct: Full length (from UniProt P22694)  0.684
2. AURKA, construct: Full length (from UniProt O14965)  0.958
3. RIPK1, construct: aa1-327 (from UniProt Q13546)  1.28

same assay, conditions: F fixed; at +3

In order of rising relative phosphorylation:
1. PRKACB, construct: Full length (from UniProt P22694)  0.72
2. AURKA, construct: Full length (from UniProt O14965)  1.25
3. RIPK1, construct: aa1-327 (from UniProt Q13546)  2

same assay, conditions: F fixed; at +4

In order of rising relative phosphorylation:
1. PRKACB, construct: Full length (from UniProt P22694)  0.689
2. AURKA, construct: Full length (from UniProt O14965)  0.755
3. RIPK1, construct: aa1-327 (from UniProt Q13546)  0.939

same assay, conditions: F fixed; at -1

In order of falling relative phosphorylation:
1. AURKA, construct: Full length (from UniProt O14965)  0.884
2. RIPK1, construct: aa1-327 (from UniProt Q13546)  0.793
3. PRKACB, construct: Full length (from UniProt P22694)  0.455

same assay, conditions: F fixed; at -2

In order of rising relative phosphorylation:
1. AURKA, construct: Full length (from UniProt O14965)  0.203
2. PRKACB, construct: Full length (from UniProt P22694)  0.209
3. RIPK1, construct: aa1-327 (from UniProt Q13546)  0.734

same assay, conditions: F fixed; at -3

In order of falling relative phosphorylation:
1. RIPK1, construct: aa1-327 (from UniProt Q13546)  0.896
2. AURKA, construct: Full length (from UniProt O14965)  0.574
3. PRKACB, construct: Full length (from UniProt P22694)  0.213

same assay, conditions: F fixed; at -4

In order of falling relative phosphorylation:
1. RIPK1, construct: aa1-327 (from UniProt Q13546)  1.04
2. AURKA, construct: Full length (from UniProt O14965)  0.725
3. PRKACB, construct: Full length (from UniProt P22694)  0.486

same assay, conditions: F fixed; at -5

In order of falling relative phosphorylation:
1. RIPK1, construct: aa1-327 (from UniProt Q13546)  1.09
2. AURKA, construct: Full length (from UniProt O14965)  0.83
3. PRKACB, construct: Full length (from UniProt P22694)  0.594

same assay, conditions: G fixed; at +1

In order of falling relative phosphorylation:
1. PRKACB, construct: Full length (from UniProt P22694)  0.87
2. RIPK1, construct: aa1-327 (from UniProt Q13546)  0.79
3. AURKA, construct: Full length (from UniProt O14965)  0.647

same assay, conditions: G fixed; at +2

In order of falling relative phosphorylation:
1. AURKA, construct: Full length (from UniProt O14965)  1.76
2. PRKACB, construct: Full length (from UniProt P22694)  1.29
3. RIPK1, construct: aa1-327 (from UniProt Q13546)  0.817

same assay, conditions: G fixed; at +3

In order of falling relative phosphorylation:
1. AURKA, construct: Full length (from UniProt O14965)  1.48
2. PRKACB, construct: Full length (from UniProt P22694)  1.29
3. RIPK1, construct: aa1-327 (from UniProt Q13546)  0.707

same assay, conditions: G fixed; at +4

In order of rising relative phosphorylation:
1. AURKA, construct: Full length (from UniProt O14965)  1.05
2. PRKACB, construct: Full length (from UniProt P22694)  1.15
3. RIPK1, construct: aa1-327 (from UniProt Q13546)  1.28

same assay, conditions: G fixed; at -1

In order of rising relative phosphorylation:
1. AURKA, construct: Full length (from UniProt O14965)  0.689
2. RIPK1, construct: aa1-327 (from UniProt Q13546)  0.747
3. PRKACB, construct: Full length (from UniProt P22694)  1.47

same assay, conditions: G fixed; at -2

In order of rising relative phosphorylation:
1. AURKA, construct: Full length (from UniProt O14965)  0.32
2. PRKACB, construct: Full length (from UniProt P22694)  0.436
3. RIPK1, construct: aa1-327 (from UniProt Q13546)  1.21

same assay, conditions: G fixed; at -3

In order of falling relative phosphorylation:
1. AURKA, construct: Full length (from UniProt O14965)  1.38
2. RIPK1, construct: aa1-327 (from UniProt Q13546)  1.29
